In patent US20160237160A1 (Bayer, published 2016):

Legend:
Assay in all cases: ELISA, Fc fusion protein coated at 1 µg/ml, TPP-2090 at 75 nM, Amplex Red;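 note: binding reported as ELISA signal intensity in Rfu against a panel of TNF receptor superfamily members presented as Fc fusion proteins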
[1] = biological target: T1, Trail-R1 (TNFRSF10A) Fc fusion protein (Human, UniProt O00220 24-239)
T1 construct: extracellular domain; bought
Text: (§1) Shown is the result of an ELISA: Y is “ELISA signal intensity [Rfu]”; X are “TNF receptor superfamily proteins tested (Fc-fusion proteins)”: 1 is “TWEAKR”; 2 is “TWEAKR”; 3 is “Apo-3”; 4 is “Trail-R1”; 5 is “Trail-R2”; 6 is “CD385”; 7 is “CD95”; 8 is “Rank”; 9 is “TNF-R1”; 10 is “TNF-R2”; 11 is “BAFF-R”; 12 is “DcR3”; 13 is “BCMA”; 14 is “TACI”; 15 is “OX40”; 16 is “CD30”; 17 is “CD27”; 18 is “CD40”; 19 is “Osteoprotegerin”; 20 is “EDAR”; 21 is “GITR”; 22 is “HVEM”; 23 is “NGF R”; 24 is “Trail R3”; 25 is “Lymphotioxin B R”; 26 is “Trail R4”; 27 is “EDA2R”; 28 is “TROY”; 29 is “RELT”; 30 is “4-1BB”.
(§2) To collect dose-response data a serial 3fold dilution of biotinylated IgG starting with a concentration of 2 μM was used as soluble binding partner. Detection was done with anti-hIgG1-HRP and Amplex Red.

[2] = biological target: T2, Trail-R2 (TNFRSF10B) Fc fusion protein (Human, UniProt O14763 56-210)
T2 construct: extracellular domain; bought
Text: as §1, §2

[3] = biological target: T3, DcR3 (TNFRSF6B) Fc fusion protein (Human, UniProt O95407 30-300)
T3 construct: extracellular domain; bought
T3 sequence (looked up): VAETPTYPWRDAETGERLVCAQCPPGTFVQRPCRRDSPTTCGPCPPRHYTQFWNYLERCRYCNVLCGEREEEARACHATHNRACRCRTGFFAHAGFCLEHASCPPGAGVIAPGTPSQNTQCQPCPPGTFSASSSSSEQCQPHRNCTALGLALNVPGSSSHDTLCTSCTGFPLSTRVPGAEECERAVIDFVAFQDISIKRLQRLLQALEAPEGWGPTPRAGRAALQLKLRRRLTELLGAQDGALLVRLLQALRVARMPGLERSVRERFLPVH
Text: as §1, §2

[4] = biological target: T4, TACI (TNFRSF13B) Fc fusion protein (Human, UniProt O14836 1-165)
T4 construct: extracellular domain; bought
T4 sequence (looked up): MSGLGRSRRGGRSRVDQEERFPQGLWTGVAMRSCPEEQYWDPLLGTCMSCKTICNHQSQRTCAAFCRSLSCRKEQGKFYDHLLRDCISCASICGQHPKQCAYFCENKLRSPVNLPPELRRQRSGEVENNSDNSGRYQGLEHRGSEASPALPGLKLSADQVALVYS
Text: as §1, §2

[5] = biological target: T5, OX40 (TNFRSF4) Fc fusion protein (Human, UniProt P43489 29-214)
T5 construct: extracellular domain; bought
T5 sequence (looked up): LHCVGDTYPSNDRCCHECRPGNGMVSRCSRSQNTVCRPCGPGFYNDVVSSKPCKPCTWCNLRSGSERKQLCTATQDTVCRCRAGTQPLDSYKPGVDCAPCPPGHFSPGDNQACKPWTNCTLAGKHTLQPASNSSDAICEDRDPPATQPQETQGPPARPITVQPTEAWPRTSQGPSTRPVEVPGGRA
Text: as §1, §2

[6] = biological target: T6, GITR (TNFRSF18) Fc fusion protein (Human, UniProt Q9Y5U5 26-162)
T6 construct: extracellular domain; bought
T6 sequence (looked up): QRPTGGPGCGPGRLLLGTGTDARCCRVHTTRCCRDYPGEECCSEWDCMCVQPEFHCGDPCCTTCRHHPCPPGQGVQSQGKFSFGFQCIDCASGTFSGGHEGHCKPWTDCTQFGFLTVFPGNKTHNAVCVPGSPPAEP
Text: as §1, §2

[7] = biological target: T7, NGF R (TNFRSF16) Fc fusion protein (Human, UniProt P08138 29-250)
T7 construct: extracellular domain; bought
T7 sequence (looked up): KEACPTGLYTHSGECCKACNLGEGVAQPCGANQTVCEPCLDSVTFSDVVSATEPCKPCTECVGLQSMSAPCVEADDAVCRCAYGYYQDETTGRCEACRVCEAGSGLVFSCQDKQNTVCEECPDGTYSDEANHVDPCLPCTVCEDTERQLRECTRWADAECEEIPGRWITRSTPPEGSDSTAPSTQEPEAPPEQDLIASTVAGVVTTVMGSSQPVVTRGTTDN
Text: as §1, §2

[8] = biological target: T8, Trail R3 (TNFRSF10C) Fc fusion protein (Human, UniProt O14798 26-221, limits assumed)
T8 construct: extracellular domain; bought
T8 sequence (looked up): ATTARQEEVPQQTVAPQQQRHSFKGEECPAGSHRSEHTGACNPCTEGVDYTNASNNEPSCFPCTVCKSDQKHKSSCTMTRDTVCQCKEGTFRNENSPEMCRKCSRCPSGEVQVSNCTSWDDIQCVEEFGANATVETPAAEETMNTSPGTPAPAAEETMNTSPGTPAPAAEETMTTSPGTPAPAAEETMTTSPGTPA
Text: as §1, §2

[9] = biological target: T9, Trail R 4 (TNFRSF10D) Fc fusion protein (Human, UniProt Q9UBN6 56-211)
T9 construct: extracellular domain; bought
T9 sequence (looked up): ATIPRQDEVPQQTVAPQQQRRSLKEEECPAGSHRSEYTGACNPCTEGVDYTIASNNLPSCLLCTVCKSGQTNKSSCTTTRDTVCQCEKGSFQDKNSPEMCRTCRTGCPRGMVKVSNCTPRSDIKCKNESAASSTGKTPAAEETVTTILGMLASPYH
Text: as §1, §2

[10] = biological target: T10, EDA2R (TNFRSF27) Fc fusion protein (Human, UniProt Q9HAV5 1-138)
T10 construct: extracellular domain; bought
T10 sequence (looked up): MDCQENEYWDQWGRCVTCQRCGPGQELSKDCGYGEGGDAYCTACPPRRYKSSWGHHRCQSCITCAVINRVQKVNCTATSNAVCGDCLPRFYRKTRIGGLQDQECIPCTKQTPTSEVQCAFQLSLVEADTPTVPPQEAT
Text: as §1, §2

[11] = biological target: T11, TROY (TNFRSF19) Fc fusion protein (Human, UniProt Q9NS68 30-170)
T11 construct: extracellular domain; bought
T11 sequence (looked up): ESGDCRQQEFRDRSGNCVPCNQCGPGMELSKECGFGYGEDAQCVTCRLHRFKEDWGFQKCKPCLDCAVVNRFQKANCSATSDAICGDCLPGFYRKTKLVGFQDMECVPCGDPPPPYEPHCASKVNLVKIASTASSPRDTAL
Text: as §1, §2

Measured: binding result

T1 sequence (O00220 24-239): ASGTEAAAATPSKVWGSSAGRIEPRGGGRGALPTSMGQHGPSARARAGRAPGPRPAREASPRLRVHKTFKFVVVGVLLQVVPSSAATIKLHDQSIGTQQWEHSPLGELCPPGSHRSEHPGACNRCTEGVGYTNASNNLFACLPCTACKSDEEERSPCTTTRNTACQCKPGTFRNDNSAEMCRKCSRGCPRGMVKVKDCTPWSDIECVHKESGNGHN

B1: TPP-2090 (antibody, human IgG1, kappa, V domains shown)
VH: EVQLLESGGGLVQPGGSLRLSCAASGFTFSPYPMIWVRQAPGKGLEWVSYISPSGGSTHYADSVKGRFTISRDNSKNTLYLQMNSLRAEDTAVYYCARGGDTYFDYFDYWGQGTLVTVSS
VL: DIQMTQSPSSLSASVGDRVTITCRASQSISGYLNWYQQKPGKAPKLLIYQASSLQSGVPSRFSGSGSGTDFTLTISSLQPEDFATYYCQQSYTSPFITFGQGTKVEIKR
notes: Human IgG1
no binding (tested: 75 nM): all assays above
